Assay results taken from article PMC9482650, “Quantitative fragmentomics allow affinity mapping of interactomes” (Nature Communications, 2022).

T1: PTPN13_1, Q12923
T1 sequence (Q12923 1088-1188, limits assumed, looked up): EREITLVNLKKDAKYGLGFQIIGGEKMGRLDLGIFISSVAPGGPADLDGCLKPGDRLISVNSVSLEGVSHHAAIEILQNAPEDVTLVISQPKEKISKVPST

T2: LNX2_2, Q8N448
T2 sequence (Q8N448 334-432, limits assumed, looked up): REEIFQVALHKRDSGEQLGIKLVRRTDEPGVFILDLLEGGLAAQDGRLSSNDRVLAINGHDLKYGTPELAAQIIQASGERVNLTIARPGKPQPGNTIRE

T3: PARD3B_1, Q8TEW8
T3 sequence (Q8TEW8 196-299, limits assumed, looked up): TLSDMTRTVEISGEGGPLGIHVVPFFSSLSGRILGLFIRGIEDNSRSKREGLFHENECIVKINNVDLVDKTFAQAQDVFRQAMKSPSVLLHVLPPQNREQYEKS

T4: SNTG2, Q9NY99
T4 sequence (Q9NY99 68-166, limits assumed, looked up): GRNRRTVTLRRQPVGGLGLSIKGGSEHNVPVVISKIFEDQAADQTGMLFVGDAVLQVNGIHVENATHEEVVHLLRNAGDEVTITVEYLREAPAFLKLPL

T5: GRIP1_4, Q9Y3R0
T5 sequence (Q9Y3R0 467-571, limits assumed, looked up): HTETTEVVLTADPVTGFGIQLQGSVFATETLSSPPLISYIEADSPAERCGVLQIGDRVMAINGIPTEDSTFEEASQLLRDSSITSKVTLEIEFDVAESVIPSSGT

T6: SHANK1, Q9Y566
T6 sequence (Q9Y566 658-767, limits assumed, looked up): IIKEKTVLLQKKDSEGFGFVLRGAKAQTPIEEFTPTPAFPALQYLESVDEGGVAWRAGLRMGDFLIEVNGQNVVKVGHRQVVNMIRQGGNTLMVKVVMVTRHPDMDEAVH

T7: DFNB31_2, Q9P202
T7 sequence (Q9P202 274-371, limits assumed, looked up): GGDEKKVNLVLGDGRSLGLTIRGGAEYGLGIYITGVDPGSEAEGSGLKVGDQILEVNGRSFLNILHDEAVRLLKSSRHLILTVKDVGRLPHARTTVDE

T8: CARD11, Q9BXL7
T8 sequence (Q9BXL7 662-765, limits assumed, looked up): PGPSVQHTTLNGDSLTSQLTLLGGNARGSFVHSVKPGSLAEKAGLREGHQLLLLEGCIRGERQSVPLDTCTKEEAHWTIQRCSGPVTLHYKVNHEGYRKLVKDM

T9: PDZD7_3, Q9H5P4
T9 sequence (Q9H5P4 857-944, limits assumed, looked up): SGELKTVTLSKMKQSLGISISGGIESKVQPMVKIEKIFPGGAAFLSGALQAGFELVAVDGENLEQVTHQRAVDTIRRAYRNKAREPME

T10: MPP2, Q14168
T10 sequence (Q14168 180-250, limits assumed, looked up): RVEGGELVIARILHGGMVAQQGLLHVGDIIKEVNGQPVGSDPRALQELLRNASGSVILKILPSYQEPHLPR

T11: SIPA1L2, Q9P2F8
T11 sequence (Q9P2F8 945-1036, limits assumed, looked up): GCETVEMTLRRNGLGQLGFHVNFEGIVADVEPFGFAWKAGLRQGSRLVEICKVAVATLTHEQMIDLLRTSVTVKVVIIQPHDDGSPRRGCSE

T12: DFNB31_1, Q9P202
T12 sequence (Q9P202 135-233, limits assumed, looked up): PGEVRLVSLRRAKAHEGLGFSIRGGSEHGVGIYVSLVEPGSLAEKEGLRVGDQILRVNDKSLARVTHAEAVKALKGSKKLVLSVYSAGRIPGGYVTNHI


Experiments:
Assay in all cases: holdup assay
Set-up in all cases: key: below the threshold = too weak to quantify, mostly under pKd 3.1 to 4
Settings in all cases: plain residues with an end cap or a label only (N-terminal biotin on a linker: ado-ado)
NHERF4_1, Q86UT5-2 = target: NHERF4_1, Q86UT5-2
Sequence of NHERF4_1, Q86UT5-2 (Q86UT5 other isoform, or with tags, fused parts or gaps): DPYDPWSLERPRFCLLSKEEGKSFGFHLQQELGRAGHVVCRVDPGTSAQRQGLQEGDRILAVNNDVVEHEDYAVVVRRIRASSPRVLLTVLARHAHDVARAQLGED

IL16_1, Q14005 = target: IL16_1, Q14005
Sequence of IL16_1, Q14005 (Q14005 210-306): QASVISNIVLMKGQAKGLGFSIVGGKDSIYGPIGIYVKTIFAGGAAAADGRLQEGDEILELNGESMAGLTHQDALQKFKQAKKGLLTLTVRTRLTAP

SCRIB_3, Q14160 = target: SCRIB_3, Q14160
Sequence of SCRIB_3, Q14160 (Q14160 999-1103): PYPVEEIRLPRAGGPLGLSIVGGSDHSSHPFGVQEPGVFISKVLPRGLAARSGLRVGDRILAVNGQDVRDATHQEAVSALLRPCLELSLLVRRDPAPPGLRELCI

PTPN13_1, Q12923 = target: T1, PTPN13_1, Q12923
LNX1_1, Q8TBB1 = target: LNX1_1, Q8TBB1
Sequence of LNX1_1, Q8TBB1 (Q8TBB1 261-371): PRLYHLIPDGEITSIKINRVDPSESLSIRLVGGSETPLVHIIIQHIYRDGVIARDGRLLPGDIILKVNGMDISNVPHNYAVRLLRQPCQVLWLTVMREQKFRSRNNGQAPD

NHERF2_2, Q15599 = target: NHERF2_2, Q15599
Sequence of NHERF2_2, Q15599 (Q15599 142-238): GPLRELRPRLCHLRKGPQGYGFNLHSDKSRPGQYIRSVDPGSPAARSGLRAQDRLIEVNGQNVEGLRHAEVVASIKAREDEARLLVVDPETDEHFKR

LDB3, O75112 = target: LDB3, O75112
Sequence of LDB3, O75112 (O75112 1-94): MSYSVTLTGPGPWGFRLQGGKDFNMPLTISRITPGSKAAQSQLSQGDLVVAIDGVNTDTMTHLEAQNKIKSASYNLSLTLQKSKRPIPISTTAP

GRASP, Q7Z6J2 = target: GRASP, Q7Z6J2
Sequence of GRASP, Q7Z6J2 (Q7Z6J2 96-193): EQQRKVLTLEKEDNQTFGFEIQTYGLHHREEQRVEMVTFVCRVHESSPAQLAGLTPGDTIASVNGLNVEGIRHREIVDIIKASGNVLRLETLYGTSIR

MAGI1_1, Q96QZ7 = target: MAGI1_1, Q96QZ7
Sequence of MAGI1_1, Q96QZ7 (Q96QZ7 1-106): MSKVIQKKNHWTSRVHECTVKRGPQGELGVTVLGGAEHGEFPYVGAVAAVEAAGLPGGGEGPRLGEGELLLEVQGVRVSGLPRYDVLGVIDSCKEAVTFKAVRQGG

GIPC2, Q8TF65 = target: GIPC2, Q8TF65
Sequence of GIPC2, Q8TF65 (Q8TF65 112-203): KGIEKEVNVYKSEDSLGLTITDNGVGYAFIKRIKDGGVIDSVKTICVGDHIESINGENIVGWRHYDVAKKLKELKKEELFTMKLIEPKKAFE

LNX2_2, Q8N448 = target: T2, LNX2_2, Q8N448
MAGI2_6, Q86UL8 = target: MAGI2_6, Q86UL8
Sequence of MAGI2_6, Q86UL8 (Q86UL8 1141-1229): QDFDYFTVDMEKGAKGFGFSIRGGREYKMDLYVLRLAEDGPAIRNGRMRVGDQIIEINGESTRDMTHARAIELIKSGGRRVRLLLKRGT

PARD3B_1, Q8TEW8 = target: T3, PARD3B_1, Q8TEW8
Inadl_9, Q8NI35 = target: Inadl_9, Q8NI35
Sequence of Inadl_9, Q8NI35 (Q8NI35 1530-1615): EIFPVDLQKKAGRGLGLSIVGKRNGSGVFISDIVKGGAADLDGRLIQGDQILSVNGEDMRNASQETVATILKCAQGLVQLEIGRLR

SNTG2, Q9NY99 = target: T4, SNTG2, Q9NY99
DLG4_1, P78352 = target: DLG4_1, P78352
Sequence of DLG4_1, P78352 (P78352 62-152): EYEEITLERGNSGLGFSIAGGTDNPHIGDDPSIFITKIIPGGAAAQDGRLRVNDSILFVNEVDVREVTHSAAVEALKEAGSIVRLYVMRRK

GRIP1_4, Q9Y3R0 = target: T5, GRIP1_4, Q9Y3R0
SHANK1, Q9Y566 = target: T6, SHANK1, Q9Y566
DFNB31_2, Q9P202 = target: T7, DFNB31_2, Q9P202
CARD11, Q9BXL7 = target: T8, CARD11, Q9BXL7
PDZD7_3, Q9H5P4 = target: T9, PDZD7_3, Q9H5P4
MPP2, Q14168 = target: T10, MPP2, Q14168
SIPA1L2, Q9P2F8 = target: T11, SIPA1L2, Q9P2F8
GRID2IP_2, A4D2P6 = target: GRID2IP_2, A4D2P6
Sequence of GRID2IP_2, A4D2P6 (A4D2P6 272-370): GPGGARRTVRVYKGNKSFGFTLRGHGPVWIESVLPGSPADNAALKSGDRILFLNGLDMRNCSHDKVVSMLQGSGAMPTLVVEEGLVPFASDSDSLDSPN

DFNB31_1, Q9P202 = target: T12, DFNB31_1, Q9P202

Binder | pKd (NHERF4_1, Q86UT5-2) | pKd (IL16_1, Q14005) | pKd (SCRIB_3, Q14160) | pKd (PTPN13_1, Q12923) | pKd (LNX1_1, Q8TBB1) | pKd (NHERF2_2, Q15599) | pKd (LDB3, O75112) | pKd (GRASP, Q7Z6J2) | pKd (MAGI1_1, Q96QZ7) | pKd (GIPC2, Q8TF65) | pKd (LNX2_2, Q8N448) | pKd (MAGI2_6, Q86UL8) | pKd (PARD3B_1, Q8TEW8) | pKd (Inadl_9, Q8NI35) | pKd (SNTG2, Q9NY99) | pKd (DLG4_1, P78352) | pKd (GRIP1_4, Q9Y3R0) | pKd (SHANK1, Q9Y566) | pKd (DFNB31_2, Q9P202) | pKd (CARD11, Q9BXL7) | also measured
TFSRRPKTRV [CD226, Q15762] | below the threshold | 3.57 | below the threshold | below the threshold | 3.9 | below the threshold | below the threshold | 3.98 | 3.62 | below the threshold | below the threshold | below the threshold | below the threshold | below the threshold | 3.55 | 3.62 | below the threshold | 4.06 | below the threshold | below the threshold | pKd (PDZD7_3, Q9H5P4): 4.5; pKd (MPP2, Q14168): below the threshold; pKd (SIPA1L2, Q9P2F8): below the threshold; pKd (GRID2IP_2, A4D2P6): 4.16; pKd (DFNB31_1, Q9P202): below the threshold
AKADAQESRL [PLCB2, Q00722] | 3.84 | 3.94 | 4.44 | below the threshold | 3.58 | 5.19 | below the threshold | below the threshold | below the threshold | below the threshold | below the threshold | below the threshold | 4.47 | below the threshold | 4.81 | below the threshold | below the threshold | 4.33 | below the threshold | below the threshold | pKd (PDZD7_3, Q9H5P4): 4.29; pKd (MPP2, Q14168): below the threshold; pKd (SIPA1L2, Q9P2F8): below the threshold; pKd (GRID2IP_2, A4D2P6): 3.86; pKd (DFNB31_1, Q9P202): 4.11
TNSKQGETTV [FZD1, Q9UP38] | below the threshold | below the threshold | 4.38 | below the threshold | below the threshold | 3.51 | below the threshold | below the threshold | below the threshold | 4.18 | 4.71 | 4.03 | below the threshold | 3.57 | 4.16 | 4.7 | below the threshold | 3.57 | below the threshold | below the threshold | pKd (PDZD7_3, Q9H5P4): 4.53; pKd (MPP2, Q14168): below the threshold; pKd (SIPA1L2, Q9P2F8): below the threshold; pKd (GRID2IP_2, A4D2P6): 3.79; pKd (DFNB31_1, Q9P202): 3.77
IQISELETNV [SLC1A7, O00341] | below the threshold | 4.05 | 4.74 | below the threshold | 3.91 | 3.56 | below the threshold | below the threshold | below the threshold | 3.86 | 4.02 | 4.31 | below the threshold | below the threshold | 4.91 | 4.44 | below the threshold | 3.94 | below the threshold | below the threshold | pKd (PDZD7_3, Q9H5P4): 4.85; pKd (MPP2, Q14168): below the threshold; pKd (SIPA1L2, Q9P2F8): below the threshold; pKd (GRID2IP_2, A4D2P6): 3.49; pKd (DFNB31_1, Q9P202): 4.19
